In PMC9578707, “Identification of orphan ligand-receptor relationships using a cell-based CRISPRa enrichment screening platform” (eLife, 2022) one finds Kd, koff and kon data, which are given here for three molecules.

The target in experiment [1] is T1, PTPRU-ECD (receptor protein tyrosine phosphatase U, extracellular domain) (human, UniProt Q92729 19-749, biotin (BirA biotinylation; captured on streptavidin chip)).
T1 construct: receptor-type protein tyrosine phosphatase U (PTPRU, R2B subfamily), human, extracellular domain; source: Expi293F, purified (Ni-NTA, SEC), biotinylated in vitro with BirA
T1 sequence (looked up): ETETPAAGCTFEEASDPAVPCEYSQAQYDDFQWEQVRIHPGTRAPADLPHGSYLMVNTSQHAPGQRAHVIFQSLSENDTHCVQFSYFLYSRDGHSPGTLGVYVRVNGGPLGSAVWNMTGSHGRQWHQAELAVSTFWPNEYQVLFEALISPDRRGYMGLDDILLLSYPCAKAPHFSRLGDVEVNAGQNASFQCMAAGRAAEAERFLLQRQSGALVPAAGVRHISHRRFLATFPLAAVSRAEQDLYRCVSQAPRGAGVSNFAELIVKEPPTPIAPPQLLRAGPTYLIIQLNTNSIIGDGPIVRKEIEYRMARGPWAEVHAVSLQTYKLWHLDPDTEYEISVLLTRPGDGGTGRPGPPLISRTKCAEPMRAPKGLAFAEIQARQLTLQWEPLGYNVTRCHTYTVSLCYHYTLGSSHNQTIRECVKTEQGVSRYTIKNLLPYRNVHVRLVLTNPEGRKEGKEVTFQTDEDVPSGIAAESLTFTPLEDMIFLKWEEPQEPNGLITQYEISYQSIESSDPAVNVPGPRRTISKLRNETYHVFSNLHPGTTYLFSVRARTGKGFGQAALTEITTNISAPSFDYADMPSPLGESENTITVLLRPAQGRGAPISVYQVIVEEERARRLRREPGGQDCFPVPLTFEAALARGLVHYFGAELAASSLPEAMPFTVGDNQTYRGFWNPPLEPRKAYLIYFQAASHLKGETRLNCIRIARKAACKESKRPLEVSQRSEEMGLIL
Put plainly: SPR; Biacore T100; biotinylated ligand captured on a streptavidin (SA) Series S chip (~100-200 RU); non-biotinylated analyte in twofold dilutions in HBS-P+; 60 s injection at 30 ul/min, 240 s dissociation; regeneration 2 x 10 sec 2M MgCl2; kinetic fit with a 1:1 binding (Langmuir) model. To be noted: both partners purified.

In experiment [2] the target is T2, human PTPRU-ECD (human, UniProt Q92729 19-749, biotin where captured on the streptavidin chip).
T2 chain: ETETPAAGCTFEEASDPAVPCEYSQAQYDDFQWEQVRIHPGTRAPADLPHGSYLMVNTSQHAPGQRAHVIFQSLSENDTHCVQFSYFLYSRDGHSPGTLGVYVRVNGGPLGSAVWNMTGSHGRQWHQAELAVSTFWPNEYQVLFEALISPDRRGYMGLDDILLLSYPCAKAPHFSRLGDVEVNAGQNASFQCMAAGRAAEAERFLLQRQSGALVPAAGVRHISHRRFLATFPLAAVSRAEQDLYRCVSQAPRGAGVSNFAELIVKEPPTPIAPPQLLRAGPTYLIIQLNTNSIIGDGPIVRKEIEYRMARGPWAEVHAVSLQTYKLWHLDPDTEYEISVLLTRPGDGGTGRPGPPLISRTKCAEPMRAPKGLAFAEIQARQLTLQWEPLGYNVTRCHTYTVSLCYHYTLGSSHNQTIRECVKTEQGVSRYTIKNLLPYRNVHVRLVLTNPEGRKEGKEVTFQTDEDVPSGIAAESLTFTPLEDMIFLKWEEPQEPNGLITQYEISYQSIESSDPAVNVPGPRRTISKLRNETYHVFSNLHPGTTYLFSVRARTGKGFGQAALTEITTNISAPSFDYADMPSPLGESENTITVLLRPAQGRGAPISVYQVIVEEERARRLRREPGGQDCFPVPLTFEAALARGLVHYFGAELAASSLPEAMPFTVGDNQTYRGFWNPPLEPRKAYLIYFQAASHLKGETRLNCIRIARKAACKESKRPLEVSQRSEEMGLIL
Briefly: SPR.

Experiment [3] deals with T3, human PTPRU-ECD (human, UniProt Q92729 19-749, biotin where captured on the streptavidin chip).
T3 construct: PTPRU, human, extracellular domain; construct of the ECD is not described; source: Expi293F, purified (Ni-NTA, SEC)
T3 sequence (looked up): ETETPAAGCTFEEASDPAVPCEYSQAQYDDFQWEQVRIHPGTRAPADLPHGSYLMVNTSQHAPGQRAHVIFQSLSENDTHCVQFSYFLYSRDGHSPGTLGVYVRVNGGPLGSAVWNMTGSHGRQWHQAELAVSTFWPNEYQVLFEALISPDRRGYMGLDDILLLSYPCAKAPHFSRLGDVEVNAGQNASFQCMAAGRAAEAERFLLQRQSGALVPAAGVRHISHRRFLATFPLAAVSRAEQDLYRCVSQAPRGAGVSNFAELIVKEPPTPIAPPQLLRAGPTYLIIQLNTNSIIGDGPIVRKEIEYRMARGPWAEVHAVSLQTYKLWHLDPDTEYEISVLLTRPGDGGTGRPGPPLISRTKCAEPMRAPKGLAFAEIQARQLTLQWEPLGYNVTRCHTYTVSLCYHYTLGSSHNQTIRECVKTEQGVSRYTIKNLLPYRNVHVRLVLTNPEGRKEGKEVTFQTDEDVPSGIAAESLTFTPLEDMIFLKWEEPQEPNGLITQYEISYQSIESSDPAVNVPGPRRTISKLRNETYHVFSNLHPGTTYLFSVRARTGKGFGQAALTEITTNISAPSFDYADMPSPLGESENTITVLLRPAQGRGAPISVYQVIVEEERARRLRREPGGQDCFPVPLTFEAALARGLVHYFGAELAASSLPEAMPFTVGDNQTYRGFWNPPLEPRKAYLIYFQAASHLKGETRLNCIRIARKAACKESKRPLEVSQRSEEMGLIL
Put plainly: SPR; Biacore T100; biotinylated receptor ECD or hit protein captured on a streptavidin chip (~100-200 RU), non-biotinylated secreted ligand as analyte in twofold dilutions; HBS-P+ buffer; 1:1 Langmuir model or equilibrium fit. The following applies: both partners purified.

The target in experiment [4] is T1, PTPRU-ECD (receptor protein tyrosine …). Put plainly: SPR; Biacore T100; biotinylated ligand captured on a streptavidin (SA) Series S chip (~100-200 RU); non-biotinylated analyte in twofold dilutions in HBS-P+; 60 s injection at 30 ul/min, 240 s dissociation; regeneration 2 x 10 sec 2M MgCl2; kinetic fit with a 1:1 binding (Langmuir) model. The following applies: both partners purified. The source holds these as a separate data set.

B1: oligodendrocyte-myelin glycoprotein (OMG) (ligand, human, UniProt P23515 25-417, looked up)
chain: ICPLQCICTERHRHVDCSGRNLSTLPSGLQENIIHLNLSYNHFTDLHNQLTQYTNLRTLDISNNRLESLPAHLPRSLWNMSAANNNIKLLDKSDTAYQWNLKYLDVSKNMLEKVVLIKNTLRSLEVLNLSSNKLWTVPTNMPSKLHIVDLSNNSLTQILPGTLINLTNLTHLYLHNNKFTFIPDQSFDQLFQLQEITLYNNRWSCDHKQNITYLLKWMMETKAHVIGTPCSTQISSLKEHNMYPTPSGFTSSLFTVSGMQTVDTINSLSVVTQPKVTKIPKQYRTKETTFGATLSKDTTFTSTDKAFVPYPEDTSTETINSHEAAAATLTIHLQDGMVTNTSLTSSTKSSPTPMTLSITSGMPNNFSEMPQQSTTLNLWREETTTNVKTPLPS
notes: oligodendrocyte-myelin glycoprotein (OMG), human; source: Expi293F, purified (Ni-NTA, SEC), not biotinylated (SPR analyte)
In the case of B1, in experiment [1], the affinity, expressed as Kd, was 70.6 nM; the koff was found to be 0.000472 s⁻¹; the kon was determined as 6690 M⁻¹ s⁻¹.

B2: Osteocrin (ligand, human, UniProt P61366 28-133, looked up)
chain: VDVTTTEAFDSGVIDVQSTPTVREEKSATDLTAKLLLLDELVSLENDVIETKKKRSFSGFGSPLDRLSAGSVDHKGKQRKVVDHPKRRFGIPMDRIGRNRLSNSRG
modifications: biotin (biotinylated in vitro with BirA) where used on beads
notes: Osteocrin, human; also called OSTN; Musclin; source: Expi293F, purified (Ni-NTA, SEC); not shown: AviTag, C-terminal, kept
B2: the koff in the experiment with human PTPRU-ECD [2] was 0.0036 s⁻¹. Also, in the experiment with human PTPRU-ECD [3], the Kd is ~12 nM.

B3: Osteocrin (OSTN) (ligand, human, UniProt P61366 28-133, looked up)
chain: VDVTTTEAFDSGVIDVQSTPTVREEKSATDLTAKLLLLDELVSLENDVIETKKKRSFSGFGSPLDRLSAGSVDHKGKQRKVVDHPKRRFGIPMDRIGRNRLSNSRG
notes: Osteocrin (OSTN, Musclin), human; also called Musclin; source: Expi293F, purified (Ni-NTA, SEC), not biotinylated (SPR analyte)
In experiment [4], B3 displayed a Kd of 12.7 nM, a koff of 0.00368 s⁻¹ and a kon of 290000 M⁻¹ s⁻¹.
